Experimental data published in patent publication US20110300138A1 (published 2011).

What was measured:
[1] = molecular target: TSH receptor (TSHR), full length human, coated on tubes (human) (UniProt P16473); test: inhibition of 125I-TSH binding to TSHR coated tubes; 0.003 µg/mL, diluted in assay buffer
[2] = molecular target: TSH receptor (full length human TSHR) coated on tubes (human) (UniProt P16473); test: 125I-TSH binding inhibition read against NIBSC 90/672; 30 ng/mL, in assay buffer
[3] = molecular target: TSH receptor (TSHR) coated on tubes (human) (UniProt P16473); test: inhibition of 125I-K1-70 IgG binding to TSHR coated tubes; negative control 1 µg/mL in assay buffer
[4] = molecular target: TSH receptor (full length human TSHR) (human) (UniProt P16473); test: competition ELISA: inhibition of M22 Fab-peroxidase (competitor) binding to TSHR coated wells; negative control at 0.01 µg/mL diluted in assay buffer
[5] = molecular target: TSH receptor (TSHR), full length human, coated on tubes (human) (UniProt P16473); test: inhibition of 125I-TSH binding to TSHR coated tubes; 0.01 µg/mL, diluted in HBD serum pool; mean of duplicates
[6] = molecular target: thyroid stimulating hormone receptor (TSHR), full length human TSHR (human) (UniProt P16473); test: TSH-biotin competition ELISA, TSHR coated wells; negative control, 10 µg/mL in assay buffer
[7] = molecular target: TSH receptor (full length human TSHR) (human) (UniProt P16473); test: competition ELISA: inhibition of M22 Fab-peroxidase (competitor) binding to TSHR coated wells; negative control at 10 µg/mL diluted in HBD serum pool
[8] = molecular target: TSH receptor (TSHR) coated on tubes (human) (UniProt P16473); test: inhibition of 125I-K1-70 IgG binding to TSHR coated tubes; negative control 100 µg/mL in HBD serum pool; duplicate determination
[9] = molecular target: TSH receptor (full length human TSHR) (human) (UniProt P16473); test: competition ELISA: inhibition of M22 Fab-peroxidase (competitor) binding to TSHR coated wells; negative control at 1 µg/mL diluted in assay buffer
[10] = molecular target: TSHR (full length) coated on tubes (human) (UniProt P16473); test: inhibition of 125I-K1-18 Fab (competitor) binding to TSHR coated tubes; negative control 0.01 µg/mL in HBD serum
[11] = molecular target: TSHR (full length) coated on tubes (human) (UniProt P16473); test: inhibition of 125I-K1-18 Fab (competitor) binding to TSHR coated tubes; negative control 0.1 µg/mL in HBD serum
[12] = molecular target: TSHR (thyroid stimulating hormone receptor), full length human (human) (UniProt P16473); test: negative control; competitor ^125I-K1-70 IgG, TSHR coated tubes; 0.1 µg/mL in HBD
[13] = molecular target: thyroid stimulating hormone receptor (TSHR), full length human TSHR (human) (UniProt P16473); test: TSH-biotin competition ELISA, TSHR coated wells; negative control, 0.1 µg/mL in assay buffer
[14] = molecular target: wild type TSHR expressed in CHO cells (human) (UniProt P16473); test: cell-based or functional assay
[15] = molecular target: TSHR with Phe130 mutated to Ala, expressed in CHO cells (human) (UniProt P16473); test: cell-based or functional assay
[16] = molecular target: human TSHR on transfected CHO cells (human, UniProt P16473 22-764); test: cell-based or functional assay
[17] = molecular target: TSH receptor (full length human TSHR) (human) (UniProt P16473); test: competition ELISA: inhibition of M22 Fab-peroxidase (competitor) binding to TSHR coated wells; test sample at 1 µg/mL diluted in HBD serum pool
[18] = molecular target: thyroid stimulating hormone receptor (TSHR), full length human TSHR (human) (UniProt P16473); test: TSH-biotin competition ELISA, TSHR coated wells; 10 µg/mL in HBD serum
[19] = molecular target: TSH receptor (TSHR), full length human, coated on tubes (human) (UniProt P16473); test: inhibition of 125I-K1-18 IgG binding to TSHR coated tubes; competitor 125I-K1-18 IgG; sample at 100 µg/mL in HBD serum
[20] = molecular target: thyroid stimulating hormone receptor (TSHR), full length human TSHR (human) (UniProt P16473); test: TSH-biotin competition ELISA, TSHR coated wells; 10 µg/mL in assay buffer
[21] = molecular target: human TSH receptor (full length) coated on ELISA plate wells (human) (UniProt P16473); test: TSH-biotin binding inhibition ELISA, TSHR coated wells; 0.1 µg/mL in assay buffer + 100 µg/mL 5B3 IgG
[22] = molecular target: human TSH receptor (full length) coated on ELISA plate wells (human) (UniProt P16473); test: TSH-biotin binding inhibition ELISA, TSHR coated wells; 10 µg/mL in HBD serum pool
[23] = molecular target: thyroid stimulating hormone receptor (TSHR), full length, coated on tubes (human) (UniProt P16473); test: inhibition of 125I-TSH binding, TSHR coated tubes; antibody 1 µg/mL in assay buffer
[24] = molecular target: thyroid stimulating hormone receptor (full length human TSHR) (human) (UniProt P16473); test: ELISA, inhibition of TSH-biotin binding to TSHR coated wells; 0.01 µg/mL, diluted in HBD serum pool
[25] = molecular target: TSH receptor (TSHR) coated on tubes (human) (UniProt P16473); test: inhibition of 125I-K1-70 IgG binding to TSHR coated tubes; sample 10 µg/mL in HBD serum pool
[26] = molecular target: TSH receptor (TSHR), full length human, coated on tubes (human) (UniProt P16473); test: inhibition of 125I-K1-18 IgG (competitor) binding to TSHR coated tubes; test sample at 1 µg/mL in assay buffer
[27] = molecular target: human thyroid stimulating hormone receptor (TSHR), full length (human) (UniProt P16473); test: 125I-K1-18 Fab competition, TSHR coated tubes; 0.1 µg/mL in assay buffer

## M22 IgG (antibody)
[1]
  Inhibition of binding (%): -1.5%
[2]
  units/L: 8.6 units/L
  units/mg: 287 units/mg

## 5B3 IgG (antibody)
[3]
  Inhibition of binding (%): -2.6%
[4]
  Inhibition of binding (%): 2.2%
[5]
  Inhibition of binding (%): 2.6%
[6]
  Inhibition of binding (%): -8.4%
[7]
  Inhibition of binding (%): 4.9%
[8]
  Inhibition of binding (%): 1.1%
[9]
  Inhibition of binding (%): 3.4%
[10]
  Inhibition of binding (%): -8.6%
[11]
  Inhibition of binding (%): -8.3%
[12]
  Inhibition of binding (%): -3.6%
[13]
  Inhibition of binding (%): -7.8%

## TSH (ligand)
[14]
  % inhibition of TSH stimulation; TSH (2): 0%
  Cyclic AMP produced; TSH 3 ng/mL: 79.4 pmol/mL
  Cyclic AMP produced; TSH (2): 89.1 pmol/mL
[15]
  % inhibition of TSH stimulation; TSH (2): 0%
  Cyclic AMP produced; TSH 3 ng/mL: 121 pmol/mL
  Cyclic AMP produced; TSH (2): 95.4 pmol/mL
  Mutated/wild type (%) of cyclic AMP produced; TSH 3 ng/mL: 152%
  Mutated/wild type (%) of cyclic AMP produced; TSH (2): 107%

## 9D33 IgG (antibody)
[16]
  TSHR constitutive (basal) cyclic AMP activity: 2 x basal
[17]
  Inhibition of binding (%): 57.8%
[18]
  Inhibition of binding (%): 83.2%
[19]
  Inhibition of binding (%): 68.7%
[20]
  Inhibition of binding (%): 84.8%

B1: 5C9 IgG (antibody, from another filing, V domains shown)
VH: EVQLVESGGGLIQPGGSLRLSCAASGFTVSSNYMSWVRQAPGKGLEWVSVTYSGGSTSYADSVKGRFTISRDNSKNTLYLQMNSLRAEDTAVYYCARGGRYCSSISCYARSGCDYWGQGTLVTVSS
VL: AIQMTQSPSSLSASVGDRVTITCRASQSISNYLNWYQQKPGKAPKLLIYAASSLQSGVPSRFSGSGSGTDFTLTISSLQPEDFATYYCQQSYSSPSTTFGQGTKLEIK
[21]
  % inhibition of TSH-biotin binding: 36.3%
[22]
  % inhibition of TSH-biotin binding: 42.6%
[23]
  Inhibition of binding (%): 23.5%
[24]
  Inhibition of binding (%): -2.6%
[25]
  Inhibition of binding (%): 22.7%
[26]
  Inhibition of binding (%): 48%
[27]
  Inhibition of binding (%): 27.7%
